This note sets out measurements from patent EP1874358B1.

Test [1] has as its target CEA (UniProt P06731). Briefly: SE-HPLC of 125I-TF2 mixed with a 20-fold molar excess of CEA.
Test [2] addresses fusion protein containing the A3B3 domain of CEA (UniProt P06731). Briefly: competitive ELISA against HRP-conjugated hMN-14 IgG (1 nM) on A3B3 fusion protein. A general note: ELISA stands for enzyme-linked immunosorbent assay.

Consider TF2 (bispecific antibody), for which the percent shifted to a high molecular weight species in test [1] was determined as 95%. Besides, in test [2], the fold avidity relative to TF1 was determined as 2 fold.
